We go through 94 variants from the supplement of paper PMC10567573.

B1: CDC14A (parent)
chain: LNLAMVYRYCCKLNKKLKSYSLSR
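Note: lentivirally expressed fusions sorted by FACS into six bins by GFP to DsRed ratio, PSI derived from sequencing read proportions per bin multiplied by bin number.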

The series covers variants of B1. Nature of the series: protein stability index of a GFP-peptide fusion (GPS, HEK-293T) (PSI 1-6); higher = more stable. Conditions: c terminus: a fixed tail appended.
As to LNLAMVYRYCYKLNKKLKSYSLSR [C11Y], the protein stability index stood at 2.63.
The value for LNLAMVYRYCWKLNKKLKSYSLSR [C11W] was 2.15.
As for LNLAMVYRYCLKLNKKLKSYSLSR [C11L], the figure is 2.64; as for LNLAMVYRYCIKLNKKLKSYSLSR [C11I], 3.23.
As for LNLAMVYRYCPKLNKKLKSYSLSR [C11P], the figure is 1.97; as for LNLAMVYRYCCKLTKKLKSYSLSR [N14T], 3.41; as for LNLAMVYRYCCKLRKKLKSYSLSR [N14R], 3.97.
In the case of LNLAMVYRYCCKLKKKLKSYSLSR [N14K], the protein stability index was 3.38.
For the variant LNLAMVYRYCCKLIKKLKSYSLSR [N14I], the protein stability index is 2.38.
The value for LNLAMVYRYCCKLCKKLKSYSLSR [N14C] was 3.38; that for LNLAMVYRYCCKLFKKLKSYSLSR [N14F] was 2.31.
In the case of LRLAMVYRYCCKLNKKLKSYSLSR [N2R], the protein stability index is 2.39.
As for LFLAMVYRYCCKLNKKLKSYSLSR [N2F], the figure is 1.04.
The value for LLLAMVYRYCCKLNKKLKSYSLSR [N2L] was 2.17.
The value for LELAMVYRYCCKLNKKLKSYSLSR [N2E] was 3.15; that for LNLAMVYRYCCKLNKKLKSYSCSR [L22C] was 2.92; that for LNLAMVYRYCCKLNKKLKSYSHSR [L22H] was 3.37.
On to LNLAMVYRYCCKLNKKLKSYSISR [L22I], for which the protein stability index was 3.6.
The value for LNLAMVYRYCCKLNKKLKSYSKSR [L22K] was 2.39.
As for LNLAMVYRYCCKLNKKLKSYSESR [L22E], the figure is 1.85.
The value for LNLAMVYRYCCKLNKKLKSYSSSR [L22S] was 3.58; that for LNLAMVYRYCCKLNKKLKSYSDSR [L22D] was 2.2; that for LNLAMVYRYCCKLNKKLKSYSTSR [L22T] was 2.8.
With LNLAMVYRYCCKLNKKLKSYSYSR [L22Y], the protein stability index amounted to 4.37.
As for LNLAMVYRYCCKLNKKLKSYSPSR [L22P], the figure is 2.24.
As for LNLAMVYRYCCKLNKKLKSYMLSR [S21M], the figure is 3.42; as for LNLAMVYRYCCKLNKKLKSYGLSR [S21G], 2.26.
As for LNLAMVYRYCCKLNKKLKSYCLSR [S21C], the figure is 3.76; as for LNLAMVYRYCCKLNKKLKSYFLSR [S21F], 2.38.
With LNLAMVYRYCCKLNKKLKSYWLSR [S21W], the protein stability index was 2.86.
The value for LNLAMVYFYCCKLNKKLKSYSLSR [R8F] was 3.02.
As for LNLAMVYPYCCKLNKKLKSYSLSR [R8P], the figure is 2.09; as for LNLAMVYCYCCKLNKKLKSYSLSR [R8C], 3.52; as for LNLAMVYQYCCKLNKKLKSYSLSR [R8Q], 2.26.
On to LNLAMVYKYCCKLNKKLKSYSLSR [R8K], for which the protein stability index was determined as 2.08.
The value for LNLAMVYNYCCKLNKKLKSYSLSR [R8N] was 1.97.
The value for LNLAMVYGYCCKLNKKLKSYSLSR [R8G] was 3.71.
For LNLAMVYVYCCKLNKKLKSYSLSR [R8V], the protein stability index stood at 3.11.
As for LNLAMVYDYCCKLNKKLKSYSLSR [R8D], the figure is 3.23.
The value for LNLAMVYYYCCKLNKKLKSYSLSR [R8Y] was 2.67.
As to LNLAMVYRYCCKLNKHLKSYSLSR [K16H], the protein stability index amounted to 3.33.
As for LNLAMVYRYCCKLNKYLKSYSLSR [K16Y], the figure is 2.72; as for LNLAMVYRYCCKLNKQLKSYSLSR [K16Q], 2.35.
As for LNLAMVYRYCCKLNKELKSYSLSR [K16E], the figure is 1.9; as for LNLAMVYRYCCKLNKRLKSYSLSR [K16R], 3.33; as for LNLAMVYRYCCKLNKLLKSYSLSR [K16L], 2.13.
As for LNLAMVYRYCCKLNKMLKSYSLSR [K16M], the figure is 2.77; as for LNLAMVYRYCCKLNKFLKSYSLSR [K16F], 1.63.
Consider LNLAMVYRYCCKLNKCLKSYSLSR [K16C], for which the protein stability index was 4.54.
In the case of LNLAMVYRYCCKLNKKMKSYSLSR [L17M], the protein stability index is 3.07.
As for LNLAMVYRYCCKLNKKFKSYSLSR [L17F], the figure is 2.64; as for LNLAMVYRYCCKLNKKNKSYSLSR [L17N], 2.54.
Take LNLAMVYRYCCKLNKKRKSYSLSR [L17R]: the protein stability index was determined as 2.78.
As for LNLAMVYRYCCKLNKKPKSYSLSR [L17P], the figure is 3.05; as for LNLAMVYRYCCKLNKKGKSYSLSR [L17G], 2.85; as for LNLAMVYRYCCKLNKKCKSYSLSR [L17C], 4.4.
For the variant LNLAMVYRYCCKLNKKVKSYSLSR [L17V], the protein stability index amounted to 4.14.
As for LNLAMVYRYCCKLNKKEKSYSLSR [L17E], the protein stability index came to 1.69.
With LNLAMVYRYCCKLNKKLKSTSLSR [Y20T], the protein stability index is 2.42.
The value for LNLAMVYRYCCKLNKKLKSNSLSR [Y20N] was 2.16; that for LNLAMVYRYCCKLNKKLKSDSLSR [Y20D] was 3.34.
The value for LNLAMVYRYCCKLNKKLKSISLSR [Y20I] was 3.15; that for LNLAMVYRYCCKLNKKLKSPSLSR [Y20P] was 4.23; that for LNLAMVYRYCCKLNKKLKSVSLSR [Y20V] was 2.52.
The value for LNLAMVYRYCCILNKKLKSYSLSR [K12I] was 3.53; that for LNLAMVYRYCCQLNKKLKSYSLSR [K12Q] was 3.04.
Take LNLAMVYRYCCWLNKKLKSYSLSR [K12W]: the protein stability index is 2.14.
The value for LNLAMVYRYCCDLNKKLKSYSLSR [K12D] was 1.81.
The value for LNLAMVYRYCCALNKKLKSYSLSR [K12A] was 2.1.
As to LNLAMVYRYCCLLNKKLKSYSLSR [K12L], the protein stability index is 2.5.
The value for LNLAMVYRYCCTLNKKLKSYSLSR [K12T] was 2.55.
As for LNLAMVYRYCCVLNKKLKSYSLSR [K12V], the figure is 2.59; as for LNLAMVYRYCCKLNKKLKAYSLSR [S19A], 3.52.
As for LNLAMVYRYCCKLNKKLKQYSLSR [S19Q], the figure is 1.51; as for LNLAMVYRYCCKLNKKLKLYSLSR [S19L], 2.5.
Regarding LNLAMVYRYCCKLNKKLKHYSLSR [S19H], the protein stability index is 2.3.
The value for LNLAMVYRYCCKLNKKLKGYSLSR [S19G] was 2.5; that for LNLAMVYRYCCKLNKKLKIYSLSR [S19I] was 3.03.
The value for LNCAMVYRYCCKLNKKLKSYSLSR [L3C] was 4.
The value for LNNAMVYRYCCKLNKKLKSYSLSR [L3N] was 1.89; that for LNKAMVYRYCCKLNKKLKSYSLSR [L3K] was 3.48; that for LNGAMVYRYCCKLNKKLKSYSLSR [L3G] was 4.11.
LNAAMVYRYCCKLNKKLKSYSLSR [L3A]: the protein stability index is 2.74.
The value for LNRAMVYRYCCKLNKKLKSYSLSR [L3R] was 2.17; that for LNYAMVYRYCCKLNKKLKSYSLSR [L3Y] was 1.81; that for LNLAMVYRYSCKLNKKLKSYSLSR [C10S] was 2.28.
As for LNLAMVYRYNCKLNKKLKSYSLSR [C10N], the figure is 1.95.
Take LNLAMVYRYRCKLNKKLKSYSLSR [C10R]: the protein stability index came to 1.59.
The value for LNLAMVYRYGCKLNKKLKSYSLSR [C10G] was 2.71; that for LNLAMVYRYLCKLNKKLKSYSLSR [C10L] was 2.67; that for LNLAMVYRYVCKLNKKLKSYSLSR [C10V] was 3.25.
As for LNLAMVYRYFCKLNKKLKSYSLSR [C10F], the figure is 2.71; as for LNLAMVYRYICKLNKKLKSYSLSR [C10I], 4.27; as for LNLAMVYRYKCKLNKKLKSYSLSR [C10K], 1.65.
